± gives the uncertainty stated by the source.

This series is described as follows: amyloid nucleation score (Sup35N fusion, yeast selection) (log enrichment); library NNK3; higher = more nucleation; inactive = no reads after selection. The method, boiled down: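 Sup35N was fused to peptides of 20 random codons and expressed in psi-negative yeast, which were induced with 100 μM copper sulfate for 24 hours and then grown on medium lacking adenine and uracil for 7 days at 30°C. Plasmid inserts from input and output were sequenced on Illumina. The nucleation score is the DiMSum log enrichment of output over input reads, centred on the mode score of non-aggregating sequences. Sequences with under 100 input reads were left out, and random libraries had three technical output replicates.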
Regarding NVALRAGSREG, the amyloid nucleation score result was “inactive”. The value for EDERNSMCTKPIRDHRLSWM was “inactive”; that for TGVDILIPFFSPSGT was “inactive”.

As for GYRKMVTLYVDDGNHVYRFL, the amyloid nucleation score entry was “inactive”. Regarding DVNFWSLYKFCTRVDFGLSY, the amyloid nucleation score entry was “inactive”. The value for FMLCLMATLRKGLDANLWVT was “inactive”; that for LGRAQYETQFSATSVRLEPG was -0.142 ± 0.82. To VWVLYGKITVPSPKARMGKT belongs -0.083 ± 1.1; to AGQNQVRDGKVIVKACSCMS, “inactive”; to IFCGPCLSSYRPKWTGMTSY, 2.12 ± 0.06. The value for HSWNFGVCG was 0.229 ± 0.2. Take RSIITGVKVDLFNLAVTVFL: the amyloid nucleation score turned out to be 2.62 ± 0.063.

For TSVSKFKPVLHYNRTGSHGF, the amyloid nucleation score entry was “inactive”. Regarding NECLVDTA, the amyloid nucleation score result is “inactive”. On to VGYMALQETILVIVDDGVTE, for which the amyloid nucleation score entry was “inactive”. The value for NSSDVRQVLAIIRCGVV was “inactive”; that for QRVSFCIEVIGFQ was -0.042 ± 0.98; that for GIREAV was “inactive”. ADNKLANWSGAVREWEVRRV displayed an amyloid nucleation score of -0.523 ± 0.95. The value for NWRLCFNRGRCRYMIMLQKF was “inactive”; that for PTAKRM was “inactive”.

Turning to NYYNQT, the amyloid nucleation score entry was “inactive”. Consider KKISAQESEFVGSPFEYGGG, for which the amyloid nucleation score result is “inactive”. The value for FWNEVMNRLPGLL was “inactive”. With MLYFALNLC, the amyloid nucleation score entry was “inactive”. To SIPNTTFIFSLL belongs 1.19 ± 0.08; to LLRSYFVVAC, “inactive”. The value for IQDLEASRFGSIVIALDNCS was “inactive”; that for VFLPLPPCTC was “inactive”; that for FMYSGAVSDVRLNSSGDSLG was -0.516 ± 0.96. For FHPFMCSYGSGWDGRLVHCG, the amyloid nucleation score result was “inactive”. The value for RPYGFKAIVYGQCR was “inactive”; that for TAPFVYLLWRGKCSKAHSRY was “inactive”. The value for NFRSSI was “inactive”; that for RRYEFLGGTEGSARRLDSKP was “inactive”.

Consider VNYRTQRRTQYTQCTRKVGG, for which the amyloid nucleation score result was “inactive”. To CMLCKPWSSQVNSY belongs “inactive”. The value for TPRKVVDNGGLIDFKVYRLL was “inactive”; that for GFYRLVVQGLVVSRGLNWCV was “inactive”.

Substance LVMHMRLAWRECDHVSKQMR showed an amyloid nucleation score of 0.883 ± 0.15. The value for WSTESWTYPGIRMCFWGGEG was -0.755 ± 1.4. To FIRTGELLFLVEWPLVCYTK belongs “inactive”. The value for LKLSSC was 0.739 ± 0.17; that for STSFCSSLDLWSQEVIVASV was “inactive”. Regarding GVSVMSGQAMYVRKRSALEM, the amyloid nucleation score entry is “inactive”. The value for YALLKHSTWYRVGQF was “inactive”; that for SLEHHQIIYVLARPACL was “inactive”; that for IWFSLLVPDLPRIIGSLYIS was “inactive”. The value for TDIAPLAGGITSSDNIVRTK was “inactive”; that for SLSEEYDTLPATWTAQVCKR was “inactive”; that for GISYLVRNSGAKRGD was “inactive”. To ICRHLSIGG belongs “inactive”; to SQSWMSNLLMGSRDDL, 1.58 ± 0.13; to RYKEFVGNSIRIPDTCLSCC, “inactive”.

Turning to SLIYTRFGSTSWCSKNF, the amyloid nucleation score was 1.53 ± 0.14.

For the substance RYHYLSSLSMNVNTGELWMD, the amyloid nucleation score entry was “inactive”. Take NLMCW: the amyloid nucleation score was determined as 0.958 ± 0.21. The value for DSYIVYDKQDPS was “inactive”. To YVNVYGSQMVYSKSQGHFPD belongs “inactive”.

As to NLNFDWTPVPSFSYHAPSKF, the amyloid nucleation score result was “inactive”.

With NKYYVRSSFELVIVYA, the amyloid nucleation score came to 0.142 ± 0.32. As to SALPE, the amyloid nucleation score result is “inactive”. To DNTQLSVCWSLSPDTVWKLG belongs “inactive”; to MFRVMSSVKLLS, -0.754 ± 0.96. For HCCNIRRARTQF, the amyloid nucleation score entry was “inactive”. To TVKVYTWNY belongs 1.93 ± 0.09; to PFCLPRGASCRAGCGEHIKG, “inactive”. Regarding LSMDLPNQSLDKVSKRHSAN, the amyloid nucleation score result was “inactive”. As to LNQGHYSVDLSSATGTVTTF, the amyloid nucleation score entry is “inactive”. To SYLVRCVARNLLCFERVRGS belongs “inactive”; to FRIIQVVRYDMMGTRLDMYQ, 0.938 ± 0.19. To TYLRLTWIDCYSPCFKSNAI belongs 2.43 ± 0.061; to VLRIFISWCSVQLSKRLWWT, “inactive”; to YIVSSSD, “inactive”. On to YIFVMLEHVG, for which the amyloid nucleation score entry is “inactive”.

For LWGKNWIDVAECIVCLPQAS, the amyloid nucleation score result is “inactive”. To LFGTFQWVDWGLFIL belongs “inactive”.

As for WQITTRTIDRPHYKHPGVPL, the amyloid nucleation score result is “inactive”. The value for CSCWFFLVHNFNNIYRILWK was “inactive”. On to SCLFRILMQLSTTMNSSVFK, for which the amyloid nucleation score entry was “inactive”. To GGKMMFFKIRFFC belongs “inactive”; to AHRFITMSLERVSTYRGLYV, “inactive”. Regarding CIRVKHFCISHEDKR, the amyloid nucleation score result was “inactive”. The value for DFVDARFWQIFGFSNAEQGL was “inactive”; that for ADLGATAAINQKAWVGDQ was “inactive”. Substance MWGVCSFFAFPHIIFM came in with an amyloid nucleation score of 1.33 ± 0.11. The value for IWVENQFDRRFLGVSMF was “inactive”; that for HGPRLLTSKVRFWRKTLRST was “inactive”; that for NQWIAICNPSPFRVLTAHI was “inactive”.

Take SMLLVGTPDIIGDS: the amyloid nucleation score result is “inactive”.

GRPRVI: the amyloid nucleation score result is “inactive”. To LGVEVSMMTWCRMSSSMLMT belongs “inactive”; to KTYPTLCILCVDMLLRKRGV, “inactive”. To AVNYMYSQSMKIVRDCFVIV belongs “inactive”; to TSKLVCPNGVMHLRDDRVGC, “inactive”. To PLESSWSK belongs “inactive”; to TLISYFEG, “inactive”. YANWLVLILYG showed an amyloid nucleation score of 1.32 ± 0.11.

The values are drawn from the supplement of paper PMC12042874.
